The text below walks through data of patent US11807689.

The assay has as its target C1q Receptor in the complement system (rabbit serum complement) (rabbit). The experiment in a line: cell-based or functional assay.
Substance ARZERRA (ofatumumab) (antibody) yielded a CDC EC50 (Jeko-1 cells, rabbit serum) of 353 ng/mL.

On to OCREVUS (ocrelizumab) (antibody), for which the CDC EC50 (Jeko-1 cells, rabbit serum) was 1210 ng/mL.

Turning to RITUXAN (rituximab) (antibody), the CDC EC50 (Jeko-1 cells, rabbit serum) stood at 245 ng/mL.
